Experimental data from patent US20110086026A1 (ROCHE PALO ALTO, published 2011).

Assays:
[1] = target: FcγRIIIa (CD16) on Natural Killer (NK) cells (UniProt P08637); assay: FACS on NK cells in PBMC, maximum binding at 20 µg/ml
[2] = target: T1, Cynomolgus IL-13Rα1 expressed in transfected Ba/F3 cells (Cynomolgus, UniProt A0A7N9D0M5 20-425); assay: FACS, transfected against parental Ba/F3 cells, 10 µg/ml
T1 construct: Stably transfected murine Ba/F3 cells
T1 sequence: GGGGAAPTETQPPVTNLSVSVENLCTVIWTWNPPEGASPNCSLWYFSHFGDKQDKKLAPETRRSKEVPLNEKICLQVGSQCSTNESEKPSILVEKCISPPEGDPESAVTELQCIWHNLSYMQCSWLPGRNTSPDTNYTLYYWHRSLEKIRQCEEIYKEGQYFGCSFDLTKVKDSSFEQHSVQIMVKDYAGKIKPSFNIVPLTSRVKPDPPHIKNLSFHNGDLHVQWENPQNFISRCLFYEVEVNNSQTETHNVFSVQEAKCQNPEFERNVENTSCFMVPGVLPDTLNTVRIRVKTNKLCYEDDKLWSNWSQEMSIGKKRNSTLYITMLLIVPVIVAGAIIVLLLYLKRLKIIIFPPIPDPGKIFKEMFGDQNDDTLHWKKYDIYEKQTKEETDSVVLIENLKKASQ
Protocol: The gene coding for IL-13Rα1 was isolated by RT-PCR from Cynomolgus tissue and transfected into in the murine cell line Ba/F3. In order to test whether the HuMabs crossreact with Cynomolgus IL-13Rα1, the stably transfected Ba/F3 cells as well as the parental Ba/F3 cells were incubated with 10 μg/ml of HuMab and control antibodies. As positive control, a polyclonal goat-anti hIL-13Rα1 (R&D Systems) was used. Negative controls included were: a human IgG1 myeloma protein (Nordic) and normal goat serum. Bound antibodies were detected by FACS analysis using an antibody directed against human IgG conjugated with FITC to detect HuMabs and an antibody directed against goat IgG conjugated with FITC to detect goat antibodies. Mean fluorescence intensities (MFI) were compared for the individual antibodies tested on the transfected Ba/F3 line versus the parental line.
All HuMabs of the invention were able to bind to Cynomolgus IL-13Rα1 expressed in transfected Ba/F3 cells. As expected from the close homology between human and Cynomolgus IL-13Rα1, the polyclonal AF152 antibody also bound to the Cynomolgus IL-13Rα1.

[3] = target: T2, hIL-13Rα2:hFc chimeric protein (R&D Systems, UK) (human, UniProt Q14627 27-343); assay: ELISA, immobilized hIL-13Rα2:hFc, detection with anti-human kappa-POD, OD 405
T2 construct: Bought; not shown: human Fc (hFc) of the bought chimera
T2 sequence (looked up): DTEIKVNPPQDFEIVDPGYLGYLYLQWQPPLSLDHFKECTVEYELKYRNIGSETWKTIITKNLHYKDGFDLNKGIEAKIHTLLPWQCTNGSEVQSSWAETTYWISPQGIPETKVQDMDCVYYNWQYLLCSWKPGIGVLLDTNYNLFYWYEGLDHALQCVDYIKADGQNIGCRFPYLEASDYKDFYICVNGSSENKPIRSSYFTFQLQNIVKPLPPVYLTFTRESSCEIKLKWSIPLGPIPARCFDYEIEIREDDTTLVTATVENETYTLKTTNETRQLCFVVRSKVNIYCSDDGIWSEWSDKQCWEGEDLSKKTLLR
Protocol: (§1) Chimeric proteins hIL-13Rα2:hFc and hIL-4Rα:hFc (R&D Systems, UK) were dissolved in PBS (1 μg/ml) and allowed to adsorb to microtiter plates (NUNC Maxisorb) by incubation over night at 4° C. After washing the plates with washing buffer (WB=0.9% NaCl; 0.1% Tween® 20) unspecific binding sites were blocked by addition of 100 μl incubation buffer (IB=PBS with 1% crotein C and 0.1% Tween® 20) and incubation for 30 min at room-temperature (RT). Then serially diluted HuMab and control antibodies (100 μl/well; dilutions in IB) were added and incubated for 1 hour at RT. The plates were again washed and bound antibody was detected by incubation with peroxidase conjugated rabbit anti-human kappa (DAKO, Denmark) in a final dilution of 1:500 in IB. After incubation for 1 h at RT and a subsequent washing step, the plates were developed with ready-to-use ABTS® solution (Roche Diagnostics GmbH, DE) at RT in the dark. Absorbance was measured at 405 nm after absorbance of the highest concentration reached a sufficient OD.

[4] = target: T3, hIL-4Rα:hFc chimeric protein (R&D Systems, UK) (human, UniProt P24394 26-232); assay: ELISA, immobilized hIL-4Rα:hFc, detection with anti-human kappa-POD, OD 405
T3 construct: Bought; not shown: human Fc (hFc) of the bought chimera
T3 sequence (looked up): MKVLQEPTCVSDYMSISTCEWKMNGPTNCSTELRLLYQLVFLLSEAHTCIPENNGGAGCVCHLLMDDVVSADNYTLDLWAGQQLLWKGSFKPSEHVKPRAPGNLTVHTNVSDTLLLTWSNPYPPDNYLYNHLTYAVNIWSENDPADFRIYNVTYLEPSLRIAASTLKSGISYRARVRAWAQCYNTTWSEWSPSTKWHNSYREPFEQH
Protocol: as §1

[5] = target: T4, hIL-13Rα1:hFc chimeric protein (R&D Systems, UK) (human, UniProt P78552 22-343); assay: ELISA, immobilized hu IL-13Ra1:Fc, detection with anti-human kappa-POD, OD 405
T4 construct: extracellular domain; Bought; also called chimeric hIL-13Rα1:hFc; not shown: human Fc (hFc) of the bought chimera
T4 sequence (looked up): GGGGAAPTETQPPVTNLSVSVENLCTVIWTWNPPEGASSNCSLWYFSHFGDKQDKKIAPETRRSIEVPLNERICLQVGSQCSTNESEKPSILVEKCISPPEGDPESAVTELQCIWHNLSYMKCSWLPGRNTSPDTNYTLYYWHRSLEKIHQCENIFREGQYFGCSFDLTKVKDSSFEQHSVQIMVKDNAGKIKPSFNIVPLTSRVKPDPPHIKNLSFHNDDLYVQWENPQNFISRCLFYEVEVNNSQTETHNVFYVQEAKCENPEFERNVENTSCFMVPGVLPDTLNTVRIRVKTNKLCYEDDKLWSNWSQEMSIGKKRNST

[6] = target: FcγRIIIa (CD16) on Natural Killer (NK) cells (UniProt P08637); assay: FACS on NK cells in PBMC, 20 µg/ml, with 20 µg/ml of the blocking anti-CD16 clone 3G8 as competitor

Sequence of FcγRIIIa (CD16) on Natural Killer (NK) cells (P08637 17-254 limits assumed): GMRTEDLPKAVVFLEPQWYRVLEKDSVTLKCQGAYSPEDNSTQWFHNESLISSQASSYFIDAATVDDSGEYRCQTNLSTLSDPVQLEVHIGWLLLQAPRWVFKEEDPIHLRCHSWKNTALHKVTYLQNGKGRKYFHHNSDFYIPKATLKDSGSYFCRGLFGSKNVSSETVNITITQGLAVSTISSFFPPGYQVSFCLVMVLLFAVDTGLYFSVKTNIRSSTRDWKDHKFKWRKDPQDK

Row | Binder | Bmax (MFI) [1] | Fold Increase in MFI in the presence of Cyno_IL-13Rα1 [2] | binding result [3] | binding result [4] | EC50 (read off the curve) [5] | Bmax (MFI) [6]
1 | HuMab LC5002-005 (antibody, V domains shown, Only the variable domains are tied to this antibody; also called hu-MAB<h-IL-13Ralpha>LC.5002-005 (DSM ACC2711)) VH: EVQVLDSGGGLVQPGGSLRLSCTASGFTFRLYTMSWVRQTPGRGLEWVSGISGSGLSTYFADSVKGRFTISRDNSKNTVYLQMNSLRAEDTAVYYCAKEGDWIYFDSWGQGTLVIVSS VL: DIQMTQSPSSLSASVGDRVTITCRASQGISSWLAWYQQKPEKAPKSLIYAASSLQSGVPSRFSGSGSGTDFTLTISSLQPEDFATYYCQQYNSHPPTFGQGTKLEIK | 581 MFI | 86.7 | no binding (tested: 3.3 nM) | no binding (tested: 3.3 nM) | ~400 pM | 260 MFI
2 | HuMab LC5002-002 (antibody, human IgG1, V domains shown, Human IgG1 kappa from a HuMab mouse hybridoma; Only the variable domains are tied to this antibody; also called hu-MAB<h-IL-13R alpha>LC.5002-002 (DSM ACC2709)) VH: EVQLLESGGGLVQPGGSLRLSCAASGFTFNIYAMNWVRQAPGKGLEWVSVISGRGITTYYADSVKGRFTISRDNSKNTLYLQMNSLRADDTAVYYCAKGSSSWTDFDYWGQGTLVTVSS VL: DIQMTQSPSSLSASVGDRVTITCRASQGISRWVAWYQQKPEKAPKSLIYAASSLQSGVPSRFSGSGSGTDFTLTISSLQPEDFATYYCQQYNSYPWTFGQGTKVEIK |  | 79.8 |  |  |  | 
3 | HuMab LC5002-003 (antibody, V domains shown, Human IgG1 kappa from a HuMab mouse hybridoma; Only the variable domains are tied to this antibody; also called LC50002-003; hu-MAB<h-IL-13Ralpha>LC.5002-003 (DSM ACC2710)) VH: EVQLLESGGDLIQPGGSLRLSCAASGFTFNIYAMNWVRQAPGKGLEWVSVISGRGITTYYADSVKGRFTISRDNSKNTLYLQMDSLRAEDTAVYYCAKGSSYWTDFDYWGQGTLVTVSS VL: DIQMTQSPSSLSASVGDRVTITCRASQGISSWLAWYQQKPEKAPKSLIYAASSLQSGVPSRFSGSGSGTDFTLTISSLQPEDFATYYCQQYNSYPWTFGQGTKVEIK |  | 79 | no binding (tested: 3.3 nM) | no binding (tested: 3.3 nM) | ~400 pM | 
4 | HuMab LC5002-007 (antibody, human IgG1, V domains shown, Human IgG1 kappa from a HuMab mouse hybridoma; Only the variable domains are tied to this antibody; also called hu-MAB<h-IL-13R alpha>LC.5002-007 (DSM ACC2712)) VH: QVQLVQSGAEVKKPGSSVKVSCKVSGGTFSSYAFSWVRQAPGQGLEWMGRIIPILGRTNYAQKFQGRVTITADKSTSTAYMEVSSLRSEDTAVYYCAREGETLDYFYYGMDVWGQGTTVTVSS VL: EIVLTQSPGTLSLSPGERATLSCRASQSVSSSYLAWYQQKPGQAPRLLIYGASSRAIGIPDRFSGSGSGTDFTLTISRLEPEDFAVYYCQHYGSSLTFGGGTKVEIK |  | 14.9 |  |  |  | 
